These results are taken from PMC9218516, “SifR is an Rrf2-family quinone sensor associated with catechol iron uptake in Streptococcus pneumoniae D39” (The Journal of Biological Chemistry, 2022).

In one data set the target is T1, SifR (SpSifR, SPD_1448) (Streptococcus pneumoniae, UniProt A0A0H2ZNG7).
T1 construct: pHis.parallel1, E. coli BL21(DE3); His6 tag removed with TEV protease; homodimer; about 16 kDa protomer (BQ2-SifR expected 16,227 Da)
The data set can be described thus: LC-ESI-MS and tandem LC-MS/MS adduct; fluorescence anisotropy DNA release. Type of data set: binding. The conditions noted are these: covalent at C102, slower than BQ, mainly monoadduct; 20-fold excess, 1 h, pH 7.5. Background: In fluorescence polarisation assays a small probe gives low polarisation when free and higher when bound to something large.

A further data set deals with T2, YhdA (SpYhdA, SPD_1375) (Streptococcus pneumoniae, UniProt A0A0H2ZRU6).
T2 construct: pHis.parallel1, E. coli BL21(DE3); His6 tag removed with TEV protease
The data set can be described thus: ferric reductase, ferrozine capture at […] nm. Type of data set: biochemical. The conditions noted are these: 10 uM FMN, 100 uM Fe(III)-NTA, 100 uM NADH or NADPH, pH 7.5, 25 C.

In data set [1] the target is T3, CatE (SpCatE, SPD_0072) (Streptococcus pneumoniae, UniProt A0A0H2ZQ49).
T3 construct: pHis.parallel1, E. coli BL21(DE3); His6 tag removed with TEV protease; Fe(II)-reconstituted
As to the kind of experiment: UV-Vis and MS of ring-cleavage product. Type of data set: biochemical. The settings on record: 5 uM Fe(II)-CatE, 100 uM substrate, ambient O2, pH 7.4, room temperature.

The target in data set [2] is T3, CatE (SpCatE, SPD_0072). As to the kind of experiment: UV-Vis at […] nm and MS of ring-cleavage product. Type of data set: biochemical. The conditions noted are these: 5 uM Fe(II)-CatE, 100 uM substrate, ambient O2, pH 7.4, room temperature.
For data set [3], the target named is Streptococcus pneumoniae SifR (streptococcal IscR-like family transcriptional repressor), WT (Streptococcus pneumoniae D39). The data set can be described thus: SEC. In general terms: Size exclusion chromatography separates by hydrodynamic size, large species first.
The target of data set [4] is Streptococcus pneumoniae SifR C84S (Streptococcus pneumoniae D39). The data set can be described thus: SEC.
Data set [5] addresses Streptococcus pneumoniae SifR C84S/C102S (Streptococcus pneumoniae D39). The data set can be described thus: SEC.
Data set [6] has as its target Streptococcus pneumoniae SifR C102S (Streptococcus pneumoniae D39). The data set can be described thus: SEC.
The target of the next data set is 15N-SifR WT (Streptococcus pneumoniae D39, UniProt A0A0H2ZNG7 1-145). The data set can be described thus: NMR (1H,15N-TROSY); reduced; pH 6.5; 25 mM Tris-HCl, 150 mM NaCl, 2 mM EDTA, 2 mM TCEP, pH 7.5, 25 C, ~10 nM labeled DNA (Fig S8: 50 mM Tris-HCl, 150 mM NaCl, pH 7.4, 25 C; NMR: 25 mM MES pH 6.5, 150 mM NaCl, 25 C). The settings on record: protein: recombinant; tags: His6 removed by TEV; 15N-labeled; chain copies: 2.

The target in data set [7] is T4, SifR WT (Streptococcus pneumoniae D39, UniProt A0A0H2ZNG7 1-145). As to the kind of experiment: fluorescence anisotropy; reduced, 2 mM TCEP; 25 mM Tris-HCl, 150 mM NaCl, 2 mM EDTA, 2 mM TCEP, pH 7.5, 25 C, ~10 nM labeled DNA (Fig S8: 50 mM Tris-HCl, 150 mM NaCl, pH 7.4, 25 C; NMR: 25 mM MES pH 6.5, 150 mM NaCl, 25 C). The conditions noted are these: protein: recombinant; tags: His6 removed by TEV; tag-free; chain copies: 2; label: 5'-fluorescein; blunt.

Another data set concerns the target SifR C84S (Streptococcus pneumoniae D39, UniProt A0A0H2ZNG7 1-145, C84S). The data set is described as above. The settings on record: protein: recombinant; tags: His6 removed by TEV; tag-free; chain copies: 2; label: 5'-fluorescein; blunt.
The target in data set [8] is T4, SifR WT. The data set can be described thus: fluorescence anisotropy competition; reduced, 2 mM TCEP; competitor of F-catE; 25 mM Tris-HCl, 150 mM NaCl, 2 mM EDTA, 2 mM TCEP, pH 7.5, 25 C, ~10 nM labeled DNA (Fig S8: 50 mM Tris-HCl, 150 mM NaCl, pH 7.4, 25 C; NMR: 25 mM MES pH 6.5, 150 mM NaCl, 25 C). The conditions noted are these: protein: recombinant; tags: His6 removed by TEV; tag-free; chain copies: 2; blunt.

Regarding `CN1CC(O)C2=CC(=O)C(=O)C=C21` (stereo not drawn) [Adc, adrenochrome], the “LC-ESI-MS and tandem LC-MS/MS adduct; fluorescence anisotropy DNA release” value at SifR (SpSifR, SPD_1448) is listed as “Adc reacts more slowly to yield some monoadducted product”.

As to `Cc1cc2nc3c(=O)[nH]c(=O)nc-3n(C[C@H](O)[C@H](O)[C@H](O)COP(=O)(O)O)c2cc1C` [FMN], on YhdA (SpYhdA, SPD_1375), the “ferric reductase, ferrozine capture at 562 nm” value is “SpYhdA has significant activity and prefers FMN over FAD”.

For `NC[C@H](O)c1ccc(O)c(O)c1` [NE, norepinephrine], on CatE (SpCatE, SPD_0072) [1], the “UV-Vis and MS of ring-cleavage product” value is on record as “SpCatE can utilize each of these compounds as substrates”.

With `Oc1ccccc1O` [catechol], at CatE (SpCatE, SPD_0072) [2], the “UV-Vis at 375 nm and MS of ring-cleavage product” value is listed as “we first monitored its activity using UV–Vis spectroscopy against freshly prepared catechol”.

As to “Streptococcus pneumoniae SifR (streptococcal IscR-like family transcriptional repressor), WT (natural protein)”, the stoichiometry N in [3] worked out at 2.

“Streptococcus pneumoniae SifR C84S (natural protein)” had a stoichiometry N in data set [4] of 2.

“Streptococcus pneumoniae SifR C84S/C102S (natural protein)” showed a stoichiometry N in data set [5] of 2.

The molecule “Streptococcus pneumoniae SifR C102S (natural protein)” yielded a stoichiometry N in data set [6] of 2.

B1: fre operator 23 bp (dsDNA)
DNA 1: AATGTAACAAATTTATTTACAAC
DNA 2: GTTGTAAATAAATTTGTTACATT
For the molecule B1, the binding result in the data set with 15N-SifR WT was “binds”.

B2: F-catE O/P (dsDNA)
DNA 1: TATAGTTGTAATAATAATAATTACAACGAG
DNA 2: CTCGTTGTAATTATTATTATTACAACTATA
modifications: fluorescein-dT at 5' position 1 of strand 1
Regarding B2, the results for the Ka with SifR WT [7] and with SifR C84S were 1 ± 0.2 10^8 M-1 and 4.8 ± 1.5 10^8 M-1, respectively.

B3: ywnB O/P (dsDNA)
DNA 1: CAATTGCTGTAACTAAAATAATTACAACAAG
DNA 2: CTTGTTGTAATTATTTTAGTTACAGCAATTG
Turning to B3, the Ka with SifR WT [8] is 3.2 ± 0.4 10^8 M-1.

B4: yhdA O/P (dsDNA)
DNA 1: GTTTTGTTGTAATATATTTTATAACAACGAG
DNA 2: CTCGTTGTTATAAAATATATTACAACAAAAC
B4: the Ka with SifR WT [8] is 0.23 ± 0.04 10^8 M-1.

B5: trxB O/P (dsDNA)
DNA 1: GAAAGAGTTAGAATAAAGATAGTTACAACAAG
DNA 2: CTTGTTGTAACTATCTTTATTCTAACTCTTTC
Turning to B5, the Ka with SifR WT [8] was 0.13 ± 0.04 10^8 M-1.

B6: fre O/P (dsDNA)
DNA 1: GATAAAATGTAACAAATTTATTTACAACAAATC
DNA 2: GATTTGTTGTAAATAAATTTGTTACATTTTATC
Turning to B6, the Ka with SifR WT [8] was 0.25 ± 0.05 10^8 M-1.

What is called stoichiometry N is a count of units in the complex or per binding partner.
